Experimental data as given in article PMC10998826 (EJNMMI Research, 2024).
Like-named read-outs stand apart in the source and are kept apart here.

How the values were obtained:
[1] = system: medullary thyroid carcinoma tumors; assay: SPECT/CT based dosimetry of tumors; type: in vivo, humans; conditions: for Mean tumor dose: SPECT/CT dosimetry
Procedure: (§1) Patients were allowed a light breakfast at the day of each infusion. […] Entresto® was given at an oral dose of 100 mg, containing 48.6 mg sacubitril and 51.4 mg valsartan 2 h before the start of one of the two infusions. Vital signs were recorded, and a 12-lead electrocardiogram was obtained before and after each injection. Adverse events were recorded and graded according to Common Terminology Criteria for Adverse Events (CTCAE) version 4.03.
(§2) Planar whole-body scintigraphy and quantitative SPECT/CT acquisitions of neck/thorax/abdomen/pelvis were acquired with a hybrid SPECT/CT system (Siemens Intevo, Siemens Erlangen, Germany) at 1, 4, 24 and 72 h post injection (p.i.).
(§3) Calibration of the SPECT/CT camera was performed with a National Institute of Standards and Technology traceable selenium-75 point source (uncertainty in activity 3%) every four weeks. Acquisitions (medium-energy low-penetration collimator) were performed in step and shoot mode using 20 s/view, 64 views/head using a non-circular orbit with a 180° detector configuration in a 128 × 128 matrix. The photo-peak window was set to 208 keV ± 10% (187.2–228.8 keV). Except for the first patient, the quantitative tomographic images (isotropic voxel size 5.08 mm^3) were reconstructed with xSPECT Quant™ (Siemens Healthcare, Siemens Erlangen, Germany) which uses the ordered subset conjugate gradient method (OSCGM) to calculate the quantitative activity distribution. The number of iterations (12, 24 or 60) with one subset and 3D-Gaussian post-filter with full width at half maximum (FWHM) of 16.0 mm and 20.8 mm were selected automatically by the reconstruction algorithm, based on the count statistic. Triple energy window scatter correction, CT-based attenuation correction, and resolution recovery were enabled for all image reconstructions. As the xSPECT Quant™ algorithm was not available at the site initially, images of the first patient were quantitatively reconstructed (isotropic voxel size of 3.9 mm^3) using the OSCGM algorithm with 24 iterations, one subset and a 3D-Gaussian post filter of 10.0 mm FWHM. For these reconstructions, both photo-peak energy windows at 113 keV ± 10% and 208 keV ± 10% were used. All other settings remained as stated above.
(§4) At first a VOI with volume V0 and activity A0 enclosing the tumor and its surrounding background was drawn. Subsequently, the threshold was increased until a new VOI with volume Vspect and activity Aspect separating the tumor activity from background was found. The activity in the tumor at the fourth time point can then be estimated by A4=Aspect-A0-Aspect/V0-VspectVspect-VCT, where the second term is the background correction, with the tumor volume VCT determined in the contrast enhanced CT. Spill in and out of activity from the tumor volume into the background was not considered.
(§5) Time activity curves (TAC) of the tumors were determined using the mean activity of 3 ml threshold VOIs, drawn in the 1, 4, 24 and 72 h p.i. images. A linear model yt=α+λe·t was fitted to the log-transformed data points to estimate the effective half-life Te=ln2/λe . The activity at the first acquisition is then given by A1=A4·e^λe·Δt where Δt is the time difference between the first and fourth acquisition. The total number of disintegrations can then be estimated by N=A1t1/2+∫t1e^-λet^′dt^′ where t1 is the time of the first acquisition.
(§6) The average energy deposition E per disintegration in soft tissue voxels of 3.9 mm^3 and 5.08^3 mm^3 with density ρ=1g/cm^3 was calculated with FLUKA, resulting in the mean tumor dose given by D=N·E/ρ·VCT .
(§7) In case the data was not suitable for single exponential fit, N was calculated numerically using trapezoidal integration until the fourth time point and after with analytical integration of the exponential decay using the half-live of Lutetium-177.
(§8) The energy distribution in ICRP soft tissue of a Lu-177 point source was calculated with the MC-Simulation toolkit FLUKA version 4.1.0.

[2] = SPECT/CT based dosimetry of tumors; type: in vivo, humans; conditions: human, iv, total radioactivity
Procedure: as §1, §2, §3, §4, §5, §6, §7, §8

SMILES: CSCC[C@H](NC(=O)[C@H](Cc1c[nH]c2ccccc12)NC(=O)CNC(=O)[C@H](Cc1ccc(O)cc1)NC(=O)[C@H](C)NC(=O)[C@@H](CCC(=O)O)NC(=O)[C@@H](CCC(=O)O)NC(=O)[C@@H](CCC(=O)O)NC(=O)[C@@H](CCC(=O)O)NC(=O)[C@@H](CCC(=O)O)NC(=O)[C@@H](CCC(=O)O)NC(=O)CN1CCN(CC(=O)O)CCN(CC(=O)O)CCN(CC(=O)O)CC1)C(=O)N[C@@H](CC(=O)O)C(=O)N[C@@H](Cc1ccccc1)C(N)=O [[^177Lu]Lu-PP-F11N, [^177Lu]Lu-DOTA-(DGlu)6-Ala-Tyr-Gly-Trp-Met-Asp-Phe-NH2, metal not drawn]
- Mean tumor dose ([1]; with Entresto premedication, median of n = 6 tumor lesions): 0.74 Gy/GBq
- Mean tumor dose ([1]; with Entresto premedication, patient 4, 2nd tumor): 0.07 Gy/GBq
- Mean tumor dose ([1]; without Entresto premedication, median of n = 6 tumor lesions): 0.28 Gy/GBq
- Mean tumor dose ([1]; without Entresto premedication, patient 4, 2nd tumor): 0.05 Gy/GBq
- tissue to tissue ratio ([1]; human, tumor and bone marrow, iv, total radioactivity, without Entresto premedication, median, read-out: Tumor-to-bone marrow dose ratio): 9.2
- tissue to tissue ratio ([2]; tumor / bone marrow, 1.08 GBq, without Entresto premedication, patient 4, 2nd tumor, read-out: Tumor-to-bone marrow dose ratio): 1.8
- tissue to tissue ratio ([2]; tumor / bone marrow, with Entresto premedication, patient 4, 2nd tumor, read-out: Tumor-to-bone marrow dose ratio): 1.4
- tissue to tissue ratio ([2]; tumor / kidney, 1.08 GBq, without Entresto premedication, patient 4, 2nd tumor, read-out: Tumor-to-kidney dose ratio): 1
- tissue to tissue ratio ([2]; tumor / kidney, with Entresto premedication, patient 4, 2nd tumor, read-out: Tumor-to-kidney dose ratio): 0.6
- tissue to tissue ratio ([2]; tumor / stomach, 1.08 GBq, without Entresto premedication, patient 4, 2nd tumor, read-out: Tumor-to-stomach dose ratio): 0.2
- tissue to tissue ratio ([2]; tumor / stomach, with Entresto premedication, patient 4, 2nd tumor, read-out: Tumor-to-stomach dose ratio): 0.1
- tissue to tissue ratio ([2]; tumor and bone marrow, 1.08 GBq, without Entresto premedication, patient 7, 2nd tumor, read-out: Tumor-to-bone marrow dose ratio): 15.7
- tissue to tissue ratio ([2]; tumor and bone marrow, with Entresto premedication, patient 7, 2nd tumor, read-out: Tumor-to-bone marrow dose ratio): 30.3
- tissue to tissue ratio ([2]; tumor and kidney, 1.08 GBq, without Entresto premedication, median, read-out: Tumor-to-kidney dose ratio): 8.3
- tissue to tissue ratio ([2]; tumor and kidney, with Entresto premedication, median, read-out: Tumor-to-kidney dose ratio): 7.8
- tissue to tissue ratio ([2]; tumor and kidney, with Entresto premedication, patient 7, 2nd tumor, read-out: Tumor-to-kidney dose ratio): 11.2
- tissue to tissue ratio ([2]; tumor and stomach, 1.08 GBq, without Entresto premedication, median, read-out: Tumor-to-stomach dose ratio): 1.5
- tissue to tissue ratio ([2]; tumor and stomach, with Entresto premedication, median, read-out: Tumor-to-stomach dose ratio): 1.1
- tissue to tissue ratio ([2]; tumor and stomach, with Entresto premedication, patient 7, 2nd tumor, read-out: Tumor-to-stomach dose ratio): 1.3
